The values that follow come from PMC2518714.

This assay has as its target T1, CD9 (wild type) (human (endogenous in PC3)), P21926.
T1 chain: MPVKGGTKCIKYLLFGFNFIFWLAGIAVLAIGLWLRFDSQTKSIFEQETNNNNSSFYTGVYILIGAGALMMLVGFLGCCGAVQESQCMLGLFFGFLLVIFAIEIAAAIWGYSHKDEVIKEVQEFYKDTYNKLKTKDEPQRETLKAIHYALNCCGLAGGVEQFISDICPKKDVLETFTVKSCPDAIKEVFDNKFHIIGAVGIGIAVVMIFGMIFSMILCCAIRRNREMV
The assay is described as follows: single-molecule codiffusion. Conditions: remark: other sources report otherwise.

B1: CD9 (wild type), P21926 1-228 (natural protein)
chain: T1 chain
modifications: here or on the partner: palmitoylated (sites not given); palmitoylated (sites not given)
As for B1, the percent of Brownian and mixed trajectories with codiffusing molecules was determined as 15%; the percent of possible pairs dynamically colocalized turned out to be 5%.
